From patent US20240270846A1 (published 2024)

target: T1, CD3 epsilon homodimer protein (UniProt P07766 23-126); assay: SPR Biacore T200, CD3 epsilon homodimer on chip, antibody as analyte;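 further: homodimer amine-coupled to a CM4 sensor chip, run at 25 °C in HBS-EP+ buffer, with kinetic parameters derived in Biacore T200 Evaluation Software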
T1 construct: also called CD3 (CD3 epsilon)
T1 sequence (P07766 23-126): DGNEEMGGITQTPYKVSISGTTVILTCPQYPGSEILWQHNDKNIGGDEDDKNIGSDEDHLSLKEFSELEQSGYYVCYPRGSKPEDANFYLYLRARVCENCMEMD

Row | Binder | KD ratio (KD of CE115HA000 / KD of altered form)
1 | CE115HA000 H chain altered form Y58A (antibody, human IgG1, kappa, L234A L235A, N297A, name in Kabat numbering, one-arm antibody) heavy: QVQLVESGGGVVQPGRSLRLSCAASGFTFSNAWMHWVRQAPGKGLEWVAQIKAKSNNYATAYAESVKGRFTISRDDSKNSLYLQMNSLKTEDTAVYYCRYVHYGAYYGVDAWGQGTTVTVSSASTKGPSVFPLAPSSKSTSGGTAALGCLVKDYFPEPVTVSWNSGALTSGVHTFPAVLQSSGLYSLSSVVTVPSSSLGTQTYICNVNHKPSNTKVDKKVEPKSCDKTHTCPPCPAPEAAGGPSVFLFPPKPKDTLMISRTPEVTCVVVDVSHEDPEVKFNWYVDGVEVHNAKTKPREEQYASTYRVVSVLTVLHQDWLNGKEYKCKVSNKALPAPIEKTISKAKGQPREPQVYTLPPSRCELTKNQVSLSCAVKGFYPSDIAVEWESNGQPENNYKTTPPVLDSDGSFFLVSKLTVDKSRWQQGNVFSCSVMHEALHNHYTQKSLSLSPDYKDDDDK EPKSSDKTHTCPPCPAPELLGGPSVFLFPPKPKDTLMISRTPEVTCVVVDVSHEDPEVKFNWYVDGVEVHNAKTKPREEQYNSTYRVVSVLTVLHQDWLNGKEYKCKVSNKALPAPIEKTISKAKGQPREPQVCTLPPSRDELTKNQVSLWCLVKGFYPSDIAVEWESNGQPENNYKTTPPVLDSDGSFFLYSKLTVDKSRWQQGNVFSCSVMHEALHNRYTQKSLSLSP light: DIVMTQSPLSLPVTPGEPASISCRSSQSLVHSNRNTYLHWYQQKPGQAPRLLIYKVSNRFSGVPDRFSGSGSGTDFTLKISRVEAEDVGVYYCGQGTQVPYTFGQGTKLEIKRTVAAPSVFIFPPSDEQLKSGTASVVCLLNNFYPREAKVQWKVDNALQSGNSQESVTEQDSKDSTYSLSSTLTLSKADYEKHKVYACEVTHQGLSSPVTKSFNRGEC | 1.06
2 | CE115HA000 H chain altered form Y58D (antibody, human IgG1, kappa, L234A L235A, N297A, name in Kabat numbering, one-arm antibody) heavy: QVQLVESGGGVVQPGRSLRLSCAASGFTFSNAWMHWVRQAPGKGLEWVAQIKAKSNNYATDYAESVKGRFTISRDDSKNSLYLQMNSLKTEDTAVYYCRYVHYGAYYGVDAWGQGTTVTVSSASTKGPSVFPLAPSSKSTSGGTAALGCLVKDYFPEPVTVSWNSGALTSGVHTFPAVLQSSGLYSLSSVVTVPSSSLGTQTYICNVNHKPSNTKVDKKVEPKSCDKTHTCPPCPAPEAAGGPSVFLFPPKPKDTLMISRTPEVTCVVVDVSHEDPEVKFNWYVDGVEVHNAKTKPREEQYASTYRVVSVLTVLHQDWLNGKEYKCKVSNKALPAPIEKTISKAKGQPREPQVYTLPPSRCELTKNQVSLSCAVKGFYPSDIAVEWESNGQPENNYKTTPPVLDSDGSFFLVSKLTVDKSRWQQGNVFSCSVMHEALHNHYTQKSLSLSPDYKDDDDK EPKSSDKTHTCPPCPAPELLGGPSVFLFPPKPKDTLMISRTPEVTCVVVDVSHEDPEVKFNWYVDGVEVHNAKTKPREEQYNSTYRVVSVLTVLHQDWLNGKEYKCKVSNKALPAPIEKTISKAKGQPREPQVCTLPPSRDELTKNQVSLWCLVKGFYPSDIAVEWESNGQPENNYKTTPPVLDSDGSFFLYSKLTVDKSRWQQGNVFSCSVMHEALHNRYTQKSLSLSP light: DIVMTQSPLSLPVTPGEPASISCRSSQSLVHSNRNTYLHWYQQKPGQAPRLLIYKVSNRFSGVPDRFSGSGSGTDFTLKISRVEAEDVGVYYCGQGTQVPYTFGQGTKLEIKRTVAAPSVFIFPPSDEQLKSGTASVVCLLNNFYPREAKVQWKVDNALQSGNSQESVTEQDSKDSTYSLSSTLTLSKADYEKHKVYACEVTHQGLSSPVTKSFNRGEC | 4.81
3 | CE115HA000 H chain altered form Y58K (antibody, human IgG1, kappa, L234A L235A, N297A, name in Kabat numbering, one-arm antibody) heavy: QVQLVESGGGVVQPGRSLRLSCAASGFTFSNAWMHWVRQAPGKGLEWVAQIKAKSNNYATKYAESVKGRFTISRDDSKNSLYLQMNSLKTEDTAVYYCRYVHYGAYYGVDAWGQGTTVTVSSASTKGPSVFPLAPSSKSTSGGTAALGCLVKDYFPEPVTVSWNSGALTSGVHTFPAVLQSSGLYSLSSVVTVPSSSLGTQTYICNVNHKPSNTKVDKKVEPKSCDKTHTCPPCPAPEAAGGPSVFLFPPKPKDTLMISRTPEVTCVVVDVSHEDPEVKFNWYVDGVEVHNAKTKPREEQYASTYRVVSVLTVLHQDWLNGKEYKCKVSNKALPAPIEKTISKAKGQPREPQVYTLPPSRCELTKNQVSLSCAVKGFYPSDIAVEWESNGQPENNYKTTPPVLDSDGSFFLVSKLTVDKSRWQQGNVFSCSVMHEALHNHYTQKSLSLSPDYKDDDDK EPKSSDKTHTCPPCPAPELLGGPSVFLFPPKPKDTLMISRTPEVTCVVVDVSHEDPEVKFNWYVDGVEVHNAKTKPREEQYNSTYRVVSVLTVLHQDWLNGKEYKCKVSNKALPAPIEKTISKAKGQPREPQVCTLPPSRDELTKNQVSLWCLVKGFYPSDIAVEWESNGQPENNYKTTPPVLDSDGSFFLYSKLTVDKSRWQQGNVFSCSVMHEALHNRYTQKSLSLSP light: DIVMTQSPLSLPVTPGEPASISCRSSQSLVHSNRNTYLHWYQQKPGQAPRLLIYKVSNRFSGVPDRFSGSGSGTDFTLKISRVEAEDVGVYYCGQGTQVPYTFGQGTKLEIKRTVAAPSVFIFPPSDEQLKSGTASVVCLLNNFYPREAKVQWKVDNALQSGNSQESVTEQDSKDSTYSLSSTLTLSKADYEKHKVYACEVTHQGLSSPVTKSFNRGEC | 0.66
4 | CE115HA000 H chain altered form Y58L (antibody, human IgG1, kappa, L234A L235A, N297A, name in Kabat numbering, one-arm antibody) heavy: QVQLVESGGGVVQPGRSLRLSCAASGFTFSNAWMHWVRQAPGKGLEWVAQIKAKSNNYATLYAESVKGRFTISRDDSKNSLYLQMNSLKTEDTAVYYCRYVHYGAYYGVDAWGQGTTVTVSSASTKGPSVFPLAPSSKSTSGGTAALGCLVKDYFPEPVTVSWNSGALTSGVHTFPAVLQSSGLYSLSSVVTVPSSSLGTQTYICNVNHKPSNTKVDKKVEPKSCDKTHTCPPCPAPEAAGGPSVFLFPPKPKDTLMISRTPEVTCVVVDVSHEDPEVKFNWYVDGVEVHNAKTKPREEQYASTYRVVSVLTVLHQDWLNGKEYKCKVSNKALPAPIEKTISKAKGQPREPQVYTLPPSRCELTKNQVSLSCAVKGFYPSDIAVEWESNGQPENNYKTTPPVLDSDGSFFLVSKLTVDKSRWQQGNVFSCSVMHEALHNHYTQKSLSLSPDYKDDDDK EPKSSDKTHTCPPCPAPELLGGPSVFLFPPKPKDTLMISRTPEVTCVVVDVSHEDPEVKFNWYVDGVEVHNAKTKPREEQYNSTYRVVSVLTVLHQDWLNGKEYKCKVSNKALPAPIEKTISKAKGQPREPQVCTLPPSRDELTKNQVSLWCLVKGFYPSDIAVEWESNGQPENNYKTTPPVLDSDGSFFLYSKLTVDKSRWQQGNVFSCSVMHEALHNRYTQKSLSLSP light: DIVMTQSPLSLPVTPGEPASISCRSSQSLVHSNRNTYLHWYQQKPGQAPRLLIYKVSNRFSGVPDRFSGSGSGTDFTLKISRVEAEDVGVYYCGQGTQVPYTFGQGTKLEIKRTVAAPSVFIFPPSDEQLKSGTASVVCLLNNFYPREAKVQWKVDNALQSGNSQESVTEQDSKDSTYSLSSTLTLSKADYEKHKVYACEVTHQGLSSPVTKSFNRGEC | 1.21
5 | CE115HA000 H chain altered form Y58N (antibody, human IgG1, kappa, L234A L235A, N297A, name in Kabat numbering, one-arm antibody) heavy: QVQLVESGGGVVQPGRSLRLSCAASGFTFSNAWMHWVRQAPGKGLEWVAQIKAKSNNYATNYAESVKGRFTISRDDSKNSLYLQMNSLKTEDTAVYYCRYVHYGAYYGVDAWGQGTTVTVSSASTKGPSVFPLAPSSKSTSGGTAALGCLVKDYFPEPVTVSWNSGALTSGVHTFPAVLQSSGLYSLSSVVTVPSSSLGTQTYICNVNHKPSNTKVDKKVEPKSCDKTHTCPPCPAPEAAGGPSVFLFPPKPKDTLMISRTPEVTCVVVDVSHEDPEVKFNWYVDGVEVHNAKTKPREEQYASTYRVVSVLTVLHQDWLNGKEYKCKVSNKALPAPIEKTISKAKGQPREPQVYTLPPSRCELTKNQVSLSCAVKGFYPSDIAVEWESNGQPENNYKTTPPVLDSDGSFFLVSKLTVDKSRWQQGNVFSCSVMHEALHNHYTQKSLSLSPDYKDDDDK EPKSSDKTHTCPPCPAPELLGGPSVFLFPPKPKDTLMISRTPEVTCVVVDVSHEDPEVKFNWYVDGVEVHNAKTKPREEQYNSTYRVVSVLTVLHQDWLNGKEYKCKVSNKALPAPIEKTISKAKGQPREPQVCTLPPSRDELTKNQVSLWCLVKGFYPSDIAVEWESNGQPENNYKTTPPVLDSDGSFFLYSKLTVDKSRWQQGNVFSCSVMHEALHNRYTQKSLSLSP light: DIVMTQSPLSLPVTPGEPASISCRSSQSLVHSNRNTYLHWYQQKPGQAPRLLIYKVSNRFSGVPDRFSGSGSGTDFTLKISRVEAEDVGVYYCGQGTQVPYTFGQGTKLEIKRTVAAPSVFIFPPSDEQLKSGTASVVCLLNNFYPREAKVQWKVDNALQSGNSQESVTEQDSKDSTYSLSSTLTLSKADYEKHKVYACEVTHQGLSSPVTKSFNRGEC | 1.86
6 | CE115HA000 H chain altered form Y58Q (antibody, human IgG1, kappa, L234A L235A, N297A, name in Kabat numbering, one-arm antibody) heavy: QVQLVESGGGVVQPGRSLRLSCAASGFTFSNAWMHWVRQAPGKGLEWVAQIKAKSNNYATQYAESVKGRFTISRDDSKNSLYLQMNSLKTEDTAVYYCRYVHYGAYYGVDAWGQGTTVTVSSASTKGPSVFPLAPSSKSTSGGTAALGCLVKDYFPEPVTVSWNSGALTSGVHTFPAVLQSSGLYSLSSVVTVPSSSLGTQTYICNVNHKPSNTKVDKKVEPKSCDKTHTCPPCPAPEAAGGPSVFLFPPKPKDTLMISRTPEVTCVVVDVSHEDPEVKFNWYVDGVEVHNAKTKPREEQYASTYRVVSVLTVLHQDWLNGKEYKCKVSNKALPAPIEKTISKAKGQPREPQVYTLPPSRCELTKNQVSLSCAVKGFYPSDIAVEWESNGQPENNYKTTPPVLDSDGSFFLVSKLTVDKSRWQQGNVFSCSVMHEALHNHYTQKSLSLSPDYKDDDDK EPKSSDKTHTCPPCPAPELLGGPSVFLFPPKPKDTLMISRTPEVTCVVVDVSHEDPEVKFNWYVDGVEVHNAKTKPREEQYNSTYRVVSVLTVLHQDWLNGKEYKCKVSNKALPAPIEKTISKAKGQPREPQVCTLPPSRDELTKNQVSLWCLVKGFYPSDIAVEWESNGQPENNYKTTPPVLDSDGSFFLYSKLTVDKSRWQQGNVFSCSVMHEALHNRYTQKSLSLSP light: DIVMTQSPLSLPVTPGEPASISCRSSQSLVHSNRNTYLHWYQQKPGQAPRLLIYKVSNRFSGVPDRFSGSGSGTDFTLKISRVEAEDVGVYYCGQGTQVPYTFGQGTKLEIKRTVAAPSVFIFPPSDEQLKSGTASVVCLLNNFYPREAKVQWKVDNALQSGNSQESVTEQDSKDSTYSLSSTLTLSKADYEKHKVYACEVTHQGLSSPVTKSFNRGEC | 1.24
